Read-outs that look alike come from different tables or passages of the source.
Experiments:
monkey CD33 protein [1] = target: T1, monkey CD33 protein (monkey); assay: ELISA, coated monkey CD33, antibody 0.001 nM
T1 construct: The printed catalogue numbers for murine and monkey CD33 may be interchanged; also called monkey CD33-His protein

monkey CD33 protein [2] = target: T1, monkey CD33 protein; assay: ELISA, coated monkey CD33, antibody 0.0001 nM
monkey CD33 protein [3] = target: T1, monkey CD33 protein; assay: SPR (Biacore), antibody captured on Protein A chip, monkey CD33 protein as analyte
Protocol: (§1) The sample and running buffer was HBS-EP+ (10 mM HEPES, 150 mM NaCl, 3 mM EDTA, 0.05% surfactant P20) (GE Healthcare; BR-1006-69). The flow cell was set at 25° C. The sample block was set at 16° C. Both were pretreated with the running buffer. In each cycle, first, the antibody to be tested was captured using the Protein A chip, and then a single concentration of CD33 antigen protein was injected. The association and dissociation processes of the antibody with the antigen protein were recorded, and finally, the chip was regenerated using Glycine pH 1.5 (GE Healthcare; BR-1003-54). The association was determined by injecting different concentrations of recombinant human CD33-his in the solution and maintaining for 240 s, wherein the flow rate was 30 μL/min, and the protein was diluted in a 1:1 dilution ratio from 200 nM to obtain 5 concentrations in total. The dissociation phase was monitored for up to 600 s and triggered by switching from the sample solution to the running buffer. The surface was regenerated by washing with 10 mM glycine solution (pH 1.5) at a flow rate of 30 μL/min for 30 s. The difference in bulk refractive index was corrected by subtracting the responses obtained from the […]. Blank injections were also subtracted (=double reference). To calculate the apparent KD and other kinetic parameters, the Langmuir 1:1 model was used.
(§2) The assay on affinity of VHH-Fc antibodies for monkey CD33 protein (Sino Biological, Cat. No. 50712-M08H) was performed according to the method in Example 7.1.

monkey CD33 protein [4] = target: T1, monkey CD33 protein; assay: ELISA, coated monkey CD33, antibody 1 nM
monkey CD33 protein [5] = target: T1, monkey CD33 protein; assay: ELISA, coated monkey CD33, antibody 10 nM
monkey CD33 protein [6] = target: T1, monkey CD33 protein; assay: ELISA, coated monkey CD33, antibody 100 nM
[7] = target: T2, monkey CD33 on HEK293T-monkey CD33 cells (monkey); assay: FACS on HEK293T-monkey CD33 cells
T2 construct: whole, on cells

[8] = target: T2, monkey CD33 on HEK293T-monkey CD33 cells; assay: FACS on HEK293T-monkey CD33 cells; remark: listed apart in the source
monkey CD33 protein [9] = target: T1, monkey CD33 protein; assay: ELISA, coated monkey CD33, antibody 0.0001 nM; remark: listed apart in the source
human CD33-His [10] = target: T3, human CD33-His (human, UniProt P20138 18-259); assay: SPR (Biacore), antibody captured on Protein A chip, human CD33-his as analyte
T3 construct: range 18-259; Bought protein; also called human CD33-his protein; hCD33-his; not shown: His tag
T3 sequence (P20138 18-259 limits assumed): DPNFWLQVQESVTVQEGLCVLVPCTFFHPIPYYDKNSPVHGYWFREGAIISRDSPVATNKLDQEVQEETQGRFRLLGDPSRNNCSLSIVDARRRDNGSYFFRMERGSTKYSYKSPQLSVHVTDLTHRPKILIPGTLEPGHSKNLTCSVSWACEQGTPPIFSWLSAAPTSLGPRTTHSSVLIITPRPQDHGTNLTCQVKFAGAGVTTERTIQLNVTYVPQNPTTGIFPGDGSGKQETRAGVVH
Protocol: as §1

human CD33-His [11] = target: T3, human CD33-His; assay: as above; remark: listed apart in the source
Protocol: as §1

monkey CD33 protein [12] = target: T1, monkey CD33 protein; assay: SPR (Biacore), antibody captured on Protein A chip, monkey CD33 protein as analyte; remark: listed apart in the source
Protocol: as §1, §2

monkey CD33 protein [13] = target: T1, monkey CD33 protein; assay: ELISA, coated monkey CD33, antibody 0.1 nM
monkey CD33 protein [14] = target: T1, monkey CD33 protein; assay: ELISA, coated monkey CD33, antibody 0.1 nM; remark: listed apart in the source
monkey CD33 protein [15] = target: T1, monkey CD33 protein; assay: ELISA, coated monkey CD33, antibody 0.001 nM; remark: listed apart in the source
monkey CD33 protein [16] = target: T1, monkey CD33 protein; assay: ELISA, coated monkey CD33, antibody 0.01 nM
monkey CD33 protein [17] = target: T1, monkey CD33 protein; assay: ELISA, coated monkey CD33, antibody 1 nM; remark: listed apart in the source
monkey CD33 protein [18] = target: T1, monkey CD33 protein; assay: ELISA, coated monkey CD33, antibody 10 nM; remark: listed apart in the source
monkey CD33 protein [19] = target: T1, monkey CD33 protein; assay: ELISA, coated monkey CD33, antibody 0.01 nM; remark: listed apart in the source
monkey CD33 protein [20] = target: T1, monkey CD33 protein; assay: ELISA, coated monkey CD33, antibody 100 nM; remark: listed apart in the source

B1: C33B904 (antibody, human IgG1, kappa, V domains shown)
VH: EVQLVESGGGLVQPGRSLRLSCAASGFTFDDYAMHWVRQAPGKGLEWVSGIGWSGGSIVYADSVKGRFTISRDNAKNSLYLQMNSLRAEDTALYYCAKDSPYGDFFDYWGQGTLVTVSS
VL: DIVMTQSPDSLAVSLGERATINCKSSQTVFYSSNNKNYLAWYQQKPGQPPKLLISWASTRKSGVPDRFSGSGSGTDFTLTVSSLQAEDVAVYYCQHYYSTPYTFGQGTKLEIKR
notes: Control antibody, intact human IgG1; variable regions from US20190382481A1; also called C33B904 hIgG1; C331B904
Question: Which results are given for B1?
Answer: OD450 (monkey CD33 protein [1]): 0.07 OD450; OD450 (monkey CD33 protein [2]): 0.06 OD450; Kd (monkey CD33 protein [3]): 0.494 nM; koff (monkey CD33 protein [3]): 0.000497 s⁻¹; kon (monkey CD33 protein [3]): 1.01e+06 M⁻¹ s⁻¹; OD450 (monkey CD33 protein [4]): 2.73 OD450; OD450 (monkey CD33 protein [5]): 3.23 OD450; OD450 (monkey CD33 protein [6]): 3.4 OD450; EC50 [7]: 4.8 nM; Max MFI [7]: 7880 MFI; EC50 [8]: 5.7 nM; Max MFI [8]: 3590 MFI; OD450 (monkey CD33 protein [9]): 0.04 OD450; Kd (human CD33-His [10]): 0.155 nM; koff (human CD33-His [10]): 7.44e-05 s⁻¹; kon (human CD33-His [10]): 479000 M⁻¹ s⁻¹; Kd (human CD33-His [11]): 0.157 nM; koff (human CD33-His [11]): 4.08e-05 s⁻¹; kon (human CD33-His [11]): 260000 M⁻¹ s⁻¹; Kd (monkey CD33 protein [12]): 0.492 nM; koff (monkey CD33 protein [12]): 0.000632 s⁻¹; kon (monkey CD33 protein [12]): 1.29e+06 M⁻¹ s⁻¹; OD450 (monkey CD33 protein [13]): 0.99 OD450; OD450 (monkey CD33 protein [14]): 1.15 OD450; OD450 (monkey CD33 protein [15]): 0.06 OD450; OD450 (monkey CD33 protein [16]): 0.29 OD450; OD450 (monkey CD33 protein [17]): 2.52 OD450; OD450 (monkey CD33 protein [18]): 3.09 OD450; OD450 (monkey CD33 protein [19]): 0.15 OD450; OD450 (monkey CD33 protein [20]): 3.06 OD450

— patent publication US20240124575A1 (SIMCERE ZAIMING PHARMACEUTICAL, published 2024)
